Data reported in the supplement of paper PMC7125110.
± gives the standard error. Variants at the floor of the assay were thinned out.

B1: glmS ribozyme (parent)
chain: AUAAAAGCGCCAGAACUACAGAAAUGUAGUUGACGAGGAGGAGGUUUAUCGAAUUUUCGGCGGAUGCCUCCAAA

Legend:
Settings in all cases: with glucosamine-6-phosphate
glucosamine-6-phosphate [1] = variants of: B1; assay: self-cleavage kobs at 160 uM GlcN6P; higher = faster cleavage; RNA array
In short: (§1)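 Ribozyme variants carrying barcodes were transcribed in situ on sequenced MiSeq chips by E. coli RNA polymerase and tracked at 37 °C with a hybridised Cy3 probe. They were exposed to 40 μM to 10 mM glucosamine-6-phosphate in HEPES/KCl/Mg(OAc)2 buffer. kobs came from exponential decay fits of normalised per-tile medians, and kcat and KM from weighted Michaelis–Menten fits.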

glucosamine-6-phosphate [2] = variants of: B1; assay: self-cleavage kobs at 640 uM GlcN6P; higher = faster cleavage; RNA array
In short: as §1

glucosamine-6-phosphate [3] = variants of: B1; assay: self-cleavage kobs at 2500 uM GlcN6P; higher = faster cleavage; RNA array
In short: as §1

glucosamine-6-phosphate [4] = variants of: B1; assay: self-cleavage kobs at 10000 uM GlcN6P; higher = faster cleavage; RNA array
In short: as §1

Row | Variant | self-cleavage kobs at 160 uM GlcN6P (glucosamine-6-phosphate [1]) [s⁻¹] | self-cleavage kobs at 640 uM GlcN6P (glucosamine-6-phosphate [2]) [s⁻¹] | self-cleavage kobs at 2500 uM GlcN6P (glucosamine-6-phosphate [3]) [s⁻¹] | self-cleavage kobs at 10000 uM GlcN6P (glucosamine-6-phosphate [4]) [s⁻¹]
1 | AUAAAAGCGCCAGCACUACAGAAAUGUAGGUGACGUGGAGGAGGUUUAUCGAGUUUUCGGCGGAUGCCUCCAAA [A14C U30G A36U A53G] | < 1e-05 | < 1e-05 | < 1e-05 | 
2 | AUAAAAGCGCCAUUACUACAGAAAUGUAGUUGACGAGGAGGAGGUUUAUCGAAUUUUAGGCGGAUGUCUCCAAA [G13U A14U C58A C67U] | 5.09e-05 ± 1.8e-05 | 0.000194 ± 4.3e-05 | 0.000334 ± 7.5e-05 | 
3 | AUAAAAGCGCCAUAACUACAGAAAUGUAGUUUAAUAGGAGGAGGUUUAUCGAAUUUUCGGCGGAUGCCUCCAAA [G13U G32U C34A G35U] | < 1e-05 | < 1e-05 | < 1e-05 | 
4 | AUAAAAGCGCCAAAACUACAGAAAUGUAGUUGCCGAGGAGGAGGUUUAUCGAAUAUUCGGCGGAUGCCUCCAAA [G13A A33C U55A] | < 1e-05 | < 1e-05 | < 1e-05 | 
5 | AUAAAAGCGCCAAAACUACAGAAAUGUAGUUGACGAGGAGGAGGUUUAUCGAAUUUUCGGCGGAUGUCUCCAAA [G13A C67U] | 2.9e-05 ± 1.4e-05 | 4.93e-05 ± 8.8e-06 | 0.000122 ± 1.2e-05 | 0.000405 ± 9e-05
6 | AUAAAAGCGCCAGUACUACAGAAAUGUAGUAGACGAGGAGGAGGUUAAUCGAAUUUUCGGCGGAUGCCUCCAAA [A14U U31A U47A] | 0.000611 ± 0.00016 | 0.00172 ± 0.00055 |  | 
7 | AUAAAAGCGCCAAAACUACAGAAAUGUAGUUGACGAGGAGGAGGUUUAUGGAAUUUUCGGGGGAUGCCUCCAAA [G13A C50G C61G] | 0.000169 ± 2.6e-05 | 0.000203 ± 3.6e-05 | 0.000114 ± 2.2e-05 | 
8 | AUAAAAGCGCCAGUACUACAGAAAUGUAGCUGACGAGGAGGAAGUUUAUCGAAUUUUCGGCGGAUGCCUCCAAA [A14U U30C G43A] | < 1e-05 | < 1e-05 | < 1e-05 | 
9 | AUAAAAGCGCCACAACUACAGAAAUGUAGUUGACGAGGCGGAGGUUUAUCGACUUUUCGGCGGAUGCCUCCAAA [G13C A39C A53C] | < 1e-05 |  |  | 
10 | AUAAAAGCGCCAGGGCUACAGAAAUGUAGUUGACUAGGAGGAGGUUUAUCGAAUUUUCGGCGGAUGCCUCCAAA [A14G A15G G35U] | < 1e-05 | < 1e-05 | < 1e-05 | 
11 | AUAAAAGCGCCAGGACUACAGAAAUGUAGUUAACGAGUAGGAGGUUUAUCGAAUUUUCGGCGGAUGCCUCCAAA [A14G G32A G38U] | < 1e-05 |  | < 1e-05 | < 1e-05
12 | AUAAAAGCGCCAUAACUACAGAAAUGUAGUCGUCGAGGAGAACGUUUAUCGAAUUUUCGGCGGAUGCCUCCAAA [G13U U31C A33U G41A G43C] | < 1e-05 |  |  | 
13 | AUAAAAGCGCCAUAACUACAGAAAUGUAGUUAACGAGGAGCAGGUUUAUCGAAUUUUCGGCGUAUGCCUCAAAA [G13U G32A G41C G63U C71A] | < 1e-05 | < 1e-05 | < 1e-05 | 
14 | AUAAAAGCGCCAGGACUACAGAAAUGUAGUUGACAAGGAGGAGGUUUAUCGAAUUUUCGGCGGAUGCCUCCAAA [A14G G35A] | < 1e-05 | < 1e-05 | < 1e-05 | < 1e-05
15 | AUAAAAGCGCCAAAACUACAGAAAUGUAGUUGACGAGGAGGGUGUUUAUCGAAUUUUCGGCGGAUGCCUACAAA [G13A A42G G43U C70A] | < 1e-05 | < 1e-05 |  | < 1e-05
16 | AUAAAAGCGCCACGACUACAGAAAUGUAGUUGACGAGGAGGAGGUUUAUCGAAUGUUCUGCGGAUGCGUCCAAA [G13C A14G U55G G59U C68G] | 0.000122 ± 5.4e-05 | 0.000281 ± 7e-05 | 9.91e-05 ± 3.7e-05 | 

Row | Variant | self-cleavage kobs at 160 uM GlcN6P (glucosamine-6-phosphate [1]) [s⁻¹] | self-cleavage kobs at 640 uM GlcN6P (glucosamine-6-phosphate [2]) [s⁻¹] | self-cleavage kobs at 2500 uM GlcN6P (glucosamine-6-phosphate [3]) [s⁻¹] | self-cleavage kobs at 10000 uM GlcN6P (glucosamine-6-phosphate [4]) [s⁻¹]
17 | AUAAAAGCGCCAGGACUACAGAAAUGUAAUUGACGUGGAGGAGGUUCAUCGAAUUUUCGGCGGAUGUCUCCAAA [A14G G29A A36U U47C C67U] | < 1e-05 | < 1e-05 |  | 
18 | AUAAAAGCGCCACAAAUACAGAAAUGUAGUUGACGAGGAGGAGGUUUAUCGAAUUUUCGGCGGAUGCUUCCAAA [G13C C16A C68U] | < 1e-05 |  |  | 
19 | AUAAAAGCGCCAGCACUACAGAAAUGUAGUUGACGAGGAGGAGGUUUAUCGAAUUUUCGGCGCAUGCCGCCAAA [A14C G63C U69G] | 7.07e-05 ± 2.1e-05 | 6.64e-05 ± 2.3e-05 | 4.71e-05 ± 1.8e-05 | 
20 | AUAAAAGCGCCAGCACUACAGAAAUGUAGUUGACGAGGUGGAGGUUUAUCGAAUUAUCGGCGUAUGCCUCCAAA [A14C A39U U56A G63U] | < 1e-05 |  |  | 
21 | AUAAAAGCGCCAGCCCUACAGAAAUGUAGUUGACGAGGAGGAGGUUUUUCGAAUUUUCGGCGGAUGCCUCCAAA [A14C A15C A48U] | < 1e-05 |  |  | 
22 | AUAAAAGCGCCACAACUACAGAAAUGUAGUUGAGCAGGAGGAUGUUUCUCGAAUUUUCGGCGGAUGGCUUCAAA [G13C C34G G35C G43U A48C C67G C70U] | < 1e-05 | < 1e-05 |  | 
23 | AUAAAAGCGCCAUAACUACAGAAAUGUAGUUGACGAGGAGGUGGUUUAUCGAAUUUUCGGCGGAUGCCUCCAAA [G13U A42U] | < 1e-05 | < 1e-05 | < 1e-05 | 
24 | AUAAAAGCGCCACAACUACAGAAAUGUAGUUGACGAGGAGGAGGUUUAUCGAAUUUUCGGCGGAUGCUUCUAAA [G13C C68U C71U] | < 1e-05 | < 1e-05 |  | 
25 | AUAAAAGCGCCAGGACUACAGAAAUGUAGUUGACAAGGAGGAGGUUCAUCGAAUUUUCGGCGGAUGACUCCAAA [A14G G35A U47C C67A] | < 1e-05 | < 1e-05 |  | 
26 | AUAAAAGCGCCAGUACUACAGAAAUGUAGUGGACGAGGAGGAGGUUUAUCGAAUUUUCGGCGGAUGACUCCAAA [A14U U31G C67A] | 7.69e-05 ± 2.3e-05 | 0.000354 ± 7.7e-05 | 0.000746 ± 0.00014 | 
27 | AUAAAAGCGCCACAACUACAGAAAUGUAGUUGACGAGGAGGAGGUUUAUGGAAUUUUCGGCGGAUGCCUCCAAA [G13C C50G] | 0.00119 ± 0.00034 |  |  | 
28 | AUAAAAGCGCCAUAACUACAGAAAUGUAGUUGACGUGGAGGAAGUUUAUCAAAUUUUCGGCGGAUGGCUUCAAA [G13U A36U G43A G51A C67G C70U] | < 1e-05 |  | < 1e-05 | 
29 | AUAAAAGCGCCAGGACUACAGAAAUGUAUUUGACGAGGAGGAGGUUUAUCGCAUUUUCGGCGGAUGCAUCCAAA [A14G G29U A52C C68A] | 0.000918 ± 0.00046 | 0.000113 ± 4.7e-05 |  | 
30 | AUAAAAGCGCCAGGACUACAGAAAUGUAGUCGACGAGGAGGAGGUUUAUCGAAUUAUCGGCGGAUGCCUCCAAA [A14G U31C U56A] | 0.0016 ± 0.00031 | 0.00939 ± 0.0013 | 0.0277 ± 0.0066 | 
31 | AUAAAAGCGCCAAAACUACAGAAAUGUAGUUGAGGAGGAGGAGGUUUAUCGAAUUUUCGGCUGAUGCCUCCAAA [G13A C34G G62U] | < 1e-05 | < 1e-05 |  | 
32 | AUAAAAGCGCCAGGACUACAGAAAUGUAGUUGACUAGGAAGAGGUUUAUCGAAUUUUCGGCGGAUGCCUCCAAA [A14G G35U G40A] | < 1e-05 |  |  | 
